Source: US20250186597A1, “TARGETED IMMUNE ACTIVATION WITH IL-18 IMMUNOCYTOKINES” (BRIGHT PEAK THERAPEUTICS AG, priority 2023, published 2025)

Experiments:
[1] = molecular target: T1, human IL-18 Binding Protein (IL-18BP) (Homo sapiens, UniProt O95998); experiment: IL-18 Binding Protein alphaLISA assay (Example 12); conditions: human IL-18BP
T1 sequence (O95998 31-194): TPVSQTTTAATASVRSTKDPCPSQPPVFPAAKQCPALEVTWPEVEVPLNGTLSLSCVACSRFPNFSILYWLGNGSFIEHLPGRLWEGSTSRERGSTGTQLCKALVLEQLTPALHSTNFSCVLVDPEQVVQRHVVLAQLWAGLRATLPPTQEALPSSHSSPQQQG
Protocol: Wild type or modified IL-18 polypeptides samples were diluted at 5.6 μM in a solution of 1× alphaLISA Immunoassay Buffer provided in the alphaLISA IFNγ Detection kit and were diluted applying 3-fold serial dilutions down to […] in 384 deep well plates. A solution of 10 ng/ml of human IL-18BP-His was prepared with 1×alphaLISA Immunoassay Buffer. IL-18/IL-18BP complex formation was performed incubating 30 μl of IL-18BP solution to IL-18 sample titrations for 1 h at 20° C. IL-18BP standard was prediluted from stock solution supplied in alphaLISA IFNγ Detection kit at 100 ng/ml with 1×alphaLISA Buffer and titration prepared from applying 2-fold serial dilutions. The following solutions were prepared: a 50 μg/ml solution of anti-IL-18BP alphaLISA Acceptor beads, a 5 nM solution of biotinylated anti-IL18BP antibody and a 80 μg/ml light-protected solution of Streptavidin Donor beads in 1×alphaLISA Immunoassay Buffer. […]
5 μl of Biotinylated anti-IL-18BP antibody were added, followed by a short centrifugation step at 150 g, and incubated for 60 minutes at 20° C. under shaking at 750 rpm. […] AlphaLisa signal was then measured on an Enspire plate reader (Perkin Elmer) using 680 and 615 nm as excitation and emission wavelengths respectively. […]

NK92 cells [2] = experiment: Cellular IL-18 Binding Protein resistance assay in NK92 cells (Example 13); type: cell-based, human; conditions: IL-18BP-mediated inhibition of IFNγ secretion, IL-18 analyte 1 nM
Protocol: The NK cell line NK-92 derived from a patient with lymphoma (ATCC, Cat #CR^L-2407) was cultured in αMEM medium supplemented with 20% FCS-Glutamax, 25 μM B-mercaptoethanol, and 100 IU/ml of recombinant Human Interleukin-2 (IL-2). On the day of experiment, cells were harvested and washed with αMEM medium without IL-2. After counting, cells were seeded at 100 000 cells/well in a 384 well titer plate and incubated at 37° C./5% CO2. Sixteen 2-fold serial dilutions of Fc fused human IL-18 binding protein isoform a (IL-18BPa; R&D systems, Cat #119-BP) were prepared in αMEM medium—1 ng/ml IL-12 containing 2 nM of each IL-18 variants and were added to the NK-92 cells. Final IL-18 analytes concentration was 1 nM and final IL-18BPa concentrations ranged from to 566 nM down to 17 pM.
(§1) After 16-20 h incubation at 37° C./5% CO2, 5 μl of supernatant were carefully transferred to a 384 microwells OPTIplate (Perkin Elmer; Cat #6007270) and Interferon-gamma (IFNγ) levels measured using the Human IFNγ AlphaLISA Assay Kit (Perkin Elmer, Cat #AL217C). […] AlphaLisa signal was then measured on an Enspire plate reader (Perkin Elmer) using 680 and 615 nm as excitation and emission wavelengths respectively. Half maximal inhibitory concentration (IC50) was calculated based on a variable slope, four parameter analysis using GraphPad PRISM software.

NK92 cells [3] = experiment: IFN gamma secretion assay in NK92 cells (Example 10); type: cell-based, human; conditions: IFNγ secretion, 1 ng/ml IL-12
Protocol: The IFNγ-secretion stimulating activity of the unconjugated IL-18 variants and corresponding IL-18 immunocytokines was evaluated on NK92 cell line. The NK cell line NK-92 derived from a patient with lymphoma (ATCC, Cat #CRL-2407) was cultured in aMEM medium supplemented with 12.5% FCS, 12.5% horse serum (HS), 50 uM B-mercaptoEthanol, and 2 ng/ml of recombinant Human Interleukin-2 (IL-2).
On the day of experiment, cells were harvested and washed with aMEM medium without IL-2 and resuspended in medium (w/o IL-2) containing 1 ng/ml of recombinant human Interleukin-12 (SinoBiologicals, Cat #CT011-H08H). After counting, cells were seeded at 100 000 cells/well in a 384 well titer plate and incubated at 37° C./5% CO2. Sixteen 4-fold serial dilutions of IL-18 analytes were prepared in aMEM medium—1 ng/ml IL-12 and were added to the NK-92 cells. […]
as §1, with “OPTIPlate” for “OPTIplate”, “effective” for “inhibitory”, “(EC50)” for “(IC50)”

B1: SEQ ID NO: 30: IL-18 polypeptide: E6K, V11I, C38A, K53A, T63A, C76A, C127A (protein)
chain: YFGKLKSKLSIIRNLNDQVLFIDQGNRPLFEDMTDSDARDNAPRTIFIISMYADSQPRGMAVAISVKCEKISTLSAENKIISFKEMNPPDNIKDTKSDIIFFQRSVPGHDNKMQFESSSYEGYFLAAEKERDLFKLILKKEDELGDRSIMFTVQNED
Work on B1 yielded a Kd [1] of 24.6 nM, an IC50 (NK92 cells [2]) of 488 nM and an EC50 (NK92 cells [3]) of 0.002 nM.
